From the Immune Epitope Database (IEDB) come the findings set out here.

pIC50, pKd: −log10 of the molar value. A value given as a limit tells only on which side of the number the result lay.

One assay addresses HLA-B*07:02. The assay can be described thus: IEDB peptide-MHC binding, purified MHC/direct/fluorescence; filed as Kd, often an IC50 or EC50 that approximates it; ≥ and ≤ were set here for values at or beyond the usual limits of such assays.
A further assay concerns the target HLA-B*15:01. Described as above.
Another assay concerns the target HLA-B*08:03. The assay is described as above.
The next assay addresses HLA-A*01:01. The assay is described as above.
For a further assay, the target named is HLA-B*46:01. The description is as above.
The next assay deals with HLA-B*27:05. Described as above.
The next assay addresses HLA-A*11:01. Described as above.
A further assay addresses HLA-B*57:01. Described as above.
Another assay addresses HLA-B*58:01. The description is as above.
The target of a further assay is HLA-B*15:02. The description is as above.
In assay [1] the target is HLA-B*39:01. The assay is described as above.
The next assay has as its target HLA-B*08:02. The assay is described as above.
The target of another assay is HLA-B*48:01. Described as above.
The target in a further assay is HLA-B*15:17. Described as above.
Assay [2] deals with HLA-A*02:01. Described as above.
Another assay addresses HLA-A*69:01. The assay is described as above.
The next assay deals with HLA-A*31:01. Described as above.
The target of assay [3] is HLA-B*35:01. The assay can be described thus: IEDB peptide-MHC binding, purified MHC/competitive/fluorescence; filed as Kd, often an IC50 or EC50 that approximates it; ≥ and ≤ were set here for values at or beyond the usual limits of such assays. The settings on record: source organism: Zaire ebolavirus.
Assay [4] concerns the target HLA-A*68:02. The assay is described as above. The settings on record: source organism: Zaire ebolavirus.
The next assay deals with HLA-A*26:01. The assay is described as above.
The target of the next assay is HLA-A*26:02. Described as above.
In the next assay the target is HLA-A*30:01. The description is as above. The settings on record: source organism: Zaire ebolavirus.
The next assay deals with HLA-C*06:02. Description: IEDB peptide-MHC binding, purified MHC/direct/fluorescence; filed as Kd, often an IC50 or EC50 that approximates it; ≥ and ≤ were set here for values at or beyond the usual limits of such assays.
Assay [5] concerns the target HLA-A*02:01. Description: IEDB peptide-MHC binding, purified MHC/competitive/radioactivity; ≥ and ≤ were set here for values at or beyond the usual limits of such assays. The settings on record: source organism: Rhinovirus C.
The next assay addresses HLA-C*08:02. The assay can be described thus: IEDB peptide-MHC binding, purified MHC/direct/fluorescence; filed as Kd, often an IC50 or EC50 that approximates it; ≥ and ≤ were set here for values at or beyond the usual limits of such assays.
A further assay concerns the target HLA-C*12:03. Described as above.
For assay [6], the target named is HLA-A*02:01. The assay can be described thus: IEDB peptide-MHC binding, purified MHC/competitive/fluorescence; filed as Kd, often an IC50 or EC50 that approximates it; ≥ and ≤ were set here for values at or beyond the usual limits of such assays.
For assay [7], the target named is HLA-B*35:01. Description: IEDB peptide-MHC binding, purified MHC/direct/fluorescence; filed as Kd, often an IC50 or EC50 that approximates it; ≥ and ≤ were set here for values at or beyond the usual limits of such assays. The settings on record: source organism: Influenza A virus (A/Quail/Shanghai/8/96(H9N2)).
The target in assay [8] is HLA-A*68:02. Described as above. The settings on record: source organism: Influenza A virus (A/Quail/Shanghai/8/96(H9N2)).
For the next assay, the target named is HLA-B*08:01. The assay is described as above. The settings on record: source organism: Influenza A virus (A/Quail/Shanghai/8/96(H9N2)).
The target in another assay is HLA-C*05:01. The assay is described as above. The settings on record: source organism: Salmonella enterica subsp. enterica serovar Typhi str. CT18.
A further assay concerns the target HLA-C*03:03. The description is as above. The settings on record: source organism: Salmonella enterica subsp. enterica serovar Typhi str. CT18.
A further assay concerns the target HLA-A*32:15. Description: IEDB peptide-MHC binding, purified MHC/competitive/fluorescence; filed as Kd, often an IC50 or EC50 that approximates it; ≥ and ≤ were set here for values at or beyond the usual limits of such assays. The settings on record: source organism: Salmonella enterica subsp. enterica serovar Typhi.
Another assay addresses HLA-A*32:07. The description is as above. The settings on record: source organism: Salmonella enterica subsp. enterica serovar Typhi.
Assay [9] concerns the target HLA-B*39:01. The description is as above.
In the next assay the target is HLA-B*45:06. Described as above. The settings on record: source organism: Salmonella enterica subsp. enterica serovar Typhi.
The next assay concerns the target HLA-B*83:01. The assay is described as above. The settings on record: source organism: Salmonella enterica subsp. enterica serovar Typhi.
A further assay addresses HLA-C*14:02. Described as above. The settings on record: source organism: Salmonella enterica subsp. enterica serovar Typhi.
A further assay deals with HLA-A*68:23. Described as above. The settings on record: source organism: Salmonella enterica subsp. enterica serovar Typhi.
In the next assay the target is HLA-B*15:42. The assay is described as above. The settings on record: source organism: Salmonella enterica subsp. enterica serovar Typhi.
The mark [10] stands for this setting: source organism: Ebola virus - Mayinga, Zaire, 1976.
Where [11] appears, read: source organism: Ravn virus - Ravn, Kenya, 1987.
Where [12] appears, read: source organism: Zaire ebolavirus.
Where [13] appears, read: source organism: Pseudomonas aeruginosa PACS2.
Where [14] appears, read: source organism: Pseudomonas putida.
[15] abbreviates: source organism: Escherichia coli 536.
The mark [16] stands for this setting: source organism: Influenza A virus (A/Quail/Shanghai/8/96(H9N2)).
The mark [17] stands for this setting: source organism: Salmonella enterica subsp. enterica serovar Typhi.
[18] abbreviates: source organism: Salmonella enterica.

As for FIYFGKKQY, the pKd with HLA-B*07:02 (setting [10]) is at most 4.70; with HLA-B*15:01 (setting [10]) it was 7.17; with HLA-B*08:03 (setting [11]), at most 4.70; in the assay with HLA-A*01:01 (setting [10]), 6.35; with HLA-B*46:01 (setting [10]), at most 4.70; in the assay with HLA-B*27:05 (setting [10]), at most 4.70. Besides, the pKd with HLA-A*11:01 (setting [10]) was at most 4.70; in the assay with HLA-B*57:01 (setting [10]), 5.15; with HLA-B*58:01 (setting [10]), at most 4.70; in the assay with HLA-B*15:02 (setting [11]) it was 8.10; with HLA-B*39:01 [1] (setting [11]), at most 4.70; with HLA-B*08:02 (setting [11]), at most 4.70. The pKd was at most 4.70 in the assay with HLA-B*48:01 (setting [10]); 6.87 with HLA-B*15:17 (setting [10]); at most 4.70 with HLA-A*02:01 [2] (setting [10]); at most 4.70 with HLA-A*69:01 (setting [10]); at most 4.70 in the assay with HLA-A*31:01 (setting [10]); 5.83 with HLA-B*35:01 [3]. Further, the pKd with HLA-A*68:02 [4] is 5.30; with HLA-A*26:01 (setting [12]) it was 5.64; with HLA-A*26:02 (setting [12]) it was at most 4.70; with HLA-A*30:01, at most 4.70.
As for FQYLLPGFVL, in the assay with HLA-C*06:02 (source organism: Variola virus), the pKd was 5.06.
For the sequence GLEPLDLNT, in the assay with HLA-A*02:01 [5], the pIC50 is 6.30.
On to IVHPPMLYM, for which the pKd is 5.66 with HLA-B*57:01 (source organism: Vibrio vulnificus CMCP6); at most 4.70 with HLA-C*08:02 (setting [13]); 5.22 with HLA-B*58:01 (setting [14]); 7.21 in the assay with HLA-B*15:17 (setting [14]); 7.21 with HLA-C*12:03 (setting [13]).
With LLDEYRDYI, the values for the pKd in the assay with HLA-C*08:02 (setting [15]) and with HLA-A*02:01 [6] (setting [15]) were at most 4.70 and 8.96, respectively.
For the sequence LVGGREWSY, the pKd with HLA-B*07:02 (setting [16]) is at most 4.70; in the assay with HLA-B*35:01 [7], 6.07; with HLA-B*15:01 (setting [16]) it was 5.92; with HLA-A*68:02 [8] it was at most 4.70; with HLA-B*08:03 (setting [16]), at most 4.70; in the assay with HLA-B*08:01 it was at most 4.70. The pKd was at most 4.70 with HLA-A*01:01 (setting [16]); at most 4.70 in the assay with HLA-B*46:01 (setting [16]); at most 4.70 with HLA-B*27:05 (setting [16]); at most 4.70 with HLA-A*11:01 (setting [16]); 5.89 with HLA-B*57:01 (setting [16]); at most 4.70 with HLA-B*58:01 (setting [16]). Moreover, the pKd is at most 4.70 with HLA-B*15:02 (setting [16]); at most 4.70 with HLA-B*39:01 [1] (setting [16]); at most 4.70 with HLA-B*08:02 (setting [16]); at most 4.70 with HLA-B*48:01 (setting [16]); 5.72 with HLA-B*15:17 (setting [16]); at most 4.70 with HLA-A*02:01 [2] (setting [16]). The pKd with HLA-A*69:01 (setting [16]), with HLA-A*31:01 (setting [16]), in the assay with HLA-A*26:01 (setting [16]) and with HLA-A*26:02 (setting [16]) was at most 4.70 throughout.
Take WTFTPTTPL: the pKd with HLA-C*05:01 was at most 4.70; with HLA-C*03:03 it was at least 9.00; in the assay with HLA-C*12:03 (source organism: Salmonella enterica subsp. enterica serovar Typhi str. CT18), 6.67; with HLA-A*32:15, 7.24; in the assay with HLA-A*32:07, 6.12; with HLA-A*26:01 (setting [17]), 6.24. The pKd with HLA-B*39:01 [9] (setting [17]) is 6.33; with HLA-B*45:06, at most 5.30; in the assay with HLA-B*83:01, at most 5.30; in the assay with HLA-C*14:02, 7.41; with HLA-A*68:23, 9.40; in the assay with HLA-B*15:42 it was at most 5.30. In the assay with HLA-A*02:01 [6] (setting [17]), this sequence gave a pKd of 8.24.
For YRYISFLVL, the pKd in the assay with HLA-C*06:02 (setting [18]) was 6.19; in the assay with HLA-B*39:01 [9] (setting [18]), 6.27.

As a reminder, the pKd is −log10 of the Kd, conventionally taken in molar units. What is called pIC50 is −log10 of the IC50, conventionally taken in molar units.
